# Experimental data reported in the Human Domainome abundance scans (Beltran et al. 2025).
# ± gives the uncertainty stated by the source.
# B1: Kinesin-like protein KIF16B, residues 1213 to 1273; numbered along this chain, Q96L93 (parent)
# chain: ETWTVFRRYSRFREMHKTLKLKYAELAALEFPPKKLFGNKDERVIAERRSHLEKYLRDFFS
# Variants of: B1
# Test: abundance fitness (aPCA) (normalised: wild type 0, dead -1); higher = more abundant; growth selection in yeast, the domain comes from the species named
# Conditions: Homo sapiens
row,Variant,abundance fitness
1,ETWTEFRRYSRFREMHKTLKLKYAELAALEFPPKKLFGNKDERVIAERRSHLEKYLRDFFS [V5E],-0.486 ± 0.12
2,ETWTAFRRYSRFREMHKTLKLKYAELAALEFPPKKLFGNKDERVIAERRSHLEKYLRDFFS [V5A],0.161 ± 0.048
3,ETWTLFRRYSRFREMHKTLKLKYAELAALEFPPKKLFGNKDERVIAERRSHLEKYLRDFFS [V5L],0.035 ± 0.1
4,ETWTMFRRYSRFREMHKTLKLKYAELAALEFPPKKLFGNKDERVIAERRSHLEKYLRDFFS [V5M],0.125 ± 0.055
5,ETWTPFRRYSRFREMHKTLKLKYAELAALEFPPKKLFGNKDERVIAERRSHLEKYLRDFFS [V5P],-0.442 ± 0.22
6,ETWTKFRRYSRFREMHKTLKLKYAELAALEFPPKKLFGNKDERVIAERRSHLEKYLRDFFS [V5K],0.318 ± 0.25
7,ETWTGFRRYSRFREMHKTLKLKYAELAALEFPPKKLFGNKDERVIAERRSHLEKYLRDFFS [V5G],0.22 ± 0.06
8,ETWTQFRRYSRFREMHKTLKLKYAELAALEFPPKKLFGNKDERVIAERRSHLEKYLRDFFS [V5Q],-0.093 ± 0.05
9,ETWTDFRRYSRFREMHKTLKLKYAELAALEFPPKKLFGNKDERVIAERRSHLEKYLRDFFS [V5D],-0.156 ± 0.11
10,ETWTIFRRYSRFREMHKTLKLKYAELAALEFPPKKLFGNKDERVIAERRSHLEKYLRDFFS [V5I],-0.044 ± 0.08
11,ETMTVFRRYSRFREMHKTLKLKYAELAALEFPPKKLFGNKDERVIAERRSHLEKYLRDFFS [W3M],-0.274 ± 0.094
12,ETLTVFRRYSRFREMHKTLKLKYAELAALEFPPKKLFGNKDERVIAERRSHLEKYLRDFFS [W3L],-0.45 ± 0.087
13,ETETVFRRYSRFREMHKTLKLKYAELAALEFPPKKLFGNKDERVIAERRSHLEKYLRDFFS [W3E],-0.088 ± 0.13
14,ETNTVFRRYSRFREMHKTLKLKYAELAALEFPPKKLFGNKDERVIAERRSHLEKYLRDFFS [W3N],-0.024 ± 0.13
15,ETFTVFRRYSRFREMHKTLKLKYAELAALEFPPKKLFGNKDERVIAERRSHLEKYLRDFFS [W3F],0.086 ± 0.15
16,ETRTVFRRYSRFREMHKTLKLKYAELAALEFPPKKLFGNKDERVIAERRSHLEKYLRDFFS [W3R],-0.232 ± 0.06
17,ETKTVFRRYSRFREMHKTLKLKYAELAALEFPPKKLFGNKDERVIAERRSHLEKYLRDFFS [W3K],-0.051 ± 0.092
18,ETVTVFRRYSRFREMHKTLKLKYAELAALEFPPKKLFGNKDERVIAERRSHLEKYLRDFFS [W3V],-0.521 ± 0.19
19,ETSTVFRRYSRFREMHKTLKLKYAELAALEFPPKKLFGNKDERVIAERRSHLEKYLRDFFS [W3S],-0.152 ± 0.13
20,ETITVFRRYSRFREMHKTLKLKYAELAALEFPPKKLFGNKDERVIAERRSHLEKYLRDFFS [W3I],-0.655 ± 0.18
21,ETDTVFRRYSRFREMHKTLKLKYAELAALEFPPKKLFGNKDERVIAERRSHLEKYLRDFFS [W3D],-0.022 ± 0.12
22,ETGTVFRRYSRFREMHKTLKLKYAELAALEFPPKKLFGNKDERVIAERRSHLEKYLRDFFS [W3G],0.039 ± 0.072

row,Variant,abundance fitness
1,ETQTVFRRYSRFREMHKTLKLKYAELAALEFPPKKLFGNKDERVIAERRSHLEKYLRDFFS [W3Q],-0.771 ± 0.24
2,ETYTVFRRYSRFREMHKTLKLKYAELAALEFPPKKLFGNKDERVIAERRSHLEKYLRDFFS [W3Y],-0.424 ± 0.22
3,ETTTVFRRYSRFREMHKTLKLKYAELAALEFPPKKLFGNKDERVIAERRSHLEKYLRDFFS [W3T],-0.432 ± 0.24
4,ETWNVFRRYSRFREMHKTLKLKYAELAALEFPPKKLFGNKDERVIAERRSHLEKYLRDFFS [T4N],0.308 ± 0.045
5,ETWLVFRRYSRFREMHKTLKLKYAELAALEFPPKKLFGNKDERVIAERRSHLEKYLRDFFS [T4L],-0.318 ± 0.045
6,ETWCVFRRYSRFREMHKTLKLKYAELAALEFPPKKLFGNKDERVIAERRSHLEKYLRDFFS [T4C],0.079 ± 0.055
7,ETWMVFRRYSRFREMHKTLKLKYAELAALEFPPKKLFGNKDERVIAERRSHLEKYLRDFFS [T4M],-0.077 ± 0.065
8,ETWEVFRRYSRFREMHKTLKLKYAELAALEFPPKKLFGNKDERVIAERRSHLEKYLRDFFS [T4E],0.223 ± 0.053
9,ETWSVFRRYSRFREMHKTLKLKYAELAALEFPPKKLFGNKDERVIAERRSHLEKYLRDFFS [T4S],0.109 ± 0.029
10,ETWAVFRRYSRFREMHKTLKLKYAELAALEFPPKKLFGNKDERVIAERRSHLEKYLRDFFS [T4A],-0.087 ± 0.057
11,ETWFVFRRYSRFREMHKTLKLKYAELAALEFPPKKLFGNKDERVIAERRSHLEKYLRDFFS [T4F],-0.124 ± 0.057
12,ETWWVFRRYSRFREMHKTLKLKYAELAALEFPPKKLFGNKDERVIAERRSHLEKYLRDFFS [T4W],0.033 ± 0.062
13,ETWKVFRRYSRFREMHKTLKLKYAELAALEFPPKKLFGNKDERVIAERRSHLEKYLRDFFS [T4K],-0.15 ± 0.058
14,ETWVVFRRYSRFREMHKTLKLKYAELAALEFPPKKLFGNKDERVIAERRSHLEKYLRDFFS [T4V],-0.319 ± 0.05
15,ETWIVFRRYSRFREMHKTLKLKYAELAALEFPPKKLFGNKDERVIAERRSHLEKYLRDFFS [T4I],-0.23 ± 0.079
16,ETWQVFRRYSRFREMHKTLKLKYAELAALEFPPKKLFGNKDERVIAERRSHLEKYLRDFFS [T4Q],0.119 ± 0.056
17,ETWYVFRRYSRFREMHKTLKLKYAELAALEFPPKKLFGNKDERVIAERRSHLEKYLRDFFS [T4Y],-0.139 ± 0.058
18,ETWHVFRRYSRFREMHKTLKLKYAELAALEFPPKKLFGNKDERVIAERRSHLEKYLRDFFS [T4H],-0.406 ± 0.077
19,ETWPVFRRYSRFREMHKTLKLKYAELAALEFPPKKLFGNKDERVIAERRSHLEKYLRDFFS [T4P],-0.102 ± 0.049
20,ETWGVFRRYSRFREMHKTLKLKYAELAALEFPPKKLFGNKDERVIAERRSHLEKYLRDFFS [T4G],0.085 ± 0.046
21,ETWRVFRRYSRFREMHKTLKLKYAELAALEFPPKKLFGNKDERVIAERRSHLEKYLRDFFS [T4R],-0.256 ± 0.043
22,ETWDVFRRYSRFREMHKTLKLKYAELAALEFPPKKLFGNKDERVIAERRSHLEKYLRDFFS [T4D],0.178 ± 0.091
